{"source": "patent US20230285635", "key": {"CD31 (PECAM-1) [1]": {"target": "CD31 (PECAM-1) (UniProt P16284)", "test": "flow", "conditions": "positions printed as 6 (n in SEQ ID NO: 1) are modified bases, identity not stated in the supplied text; at 600 and 800 nM aptamer, saturated at 600 nM; CD31-negative HepG2 and MSCs only about 2% bound"}, "CD31 (PECAM-1) [2]": {"target": "CD31 (PECAM-1) (UniProt P16284)", "test": "cell_activity", "conditions": "positions printed as 6 (n in SEQ ID NO: 1) are modified bases, identity not stated in the supplied text; aptamer-coated microfluidic device on ECM, shear stress 20 dynes/cm2; antibody coating 51%; more than 80% attached at 10 dynes/cm2"}}}
{"sequence": "TCAGCCGCCAGCCAGTTCGTAGAGGAGGTACGTAATGTCTGGGTATACCCCGATAATTGACCAGAGCACCACAGAG [anti-CD31 aptamer]", "values": [{"measurement": "binding signal (% of HUVECs bound)", "setting": "CD31 (PECAM-1) [1]", "result": 99}, {"measurement": "activity (% HUVECs attached)", "setting": "CD31 (PECAM-1) [2]", "result": 61.5}]}
